Common to all, as to experiment: CasPlay immunoprecipitation of the virome-wide library (245,002 barcodes), z-score of gRNA barcodes
Assay [1] addresses dCas9-HA epitope tag control peptide (CasPlay virome library) (Streptococcus pyogenes) (UniProt Q99ZW2).
Assay [2] deals with dCas9-FLAG peptide fusion (CasPlay library member, C-terminal 6His tag) (Streptococcus pyogenes) (UniProt Q99ZW2).
Assay [3] has as its target dCas9-myc epitope tag control peptide (CasPlay virome library) (Streptococcus pyogenes) (UniProt Q99ZW2).

A value given as a limit tells only on which side of the number the result lay.

The substance anti-HA antibody (Cell Signaling C29F4) gave a rank of z-score among all peptides of the library in assay [1] of under 0.2%.

Turning to anti-FLAG M2 antibody, the rank of z-score among all peptides of the library in assay [2] was under 0.2%. Take anti-myc antibody (Abcam ab9106): the rank of z-score among all peptides of the library in assay [3] was under 0.2%.

Source of the values: patent publication US20240352452A1.
